Assay results as given in US20260242447A1.

Target: SARS-CoV-2 spike protein (full length) (SARS-CoV-2) (UniProt P0DTC2)
Test: ELISA, GRP78-HRP on plate-bound spike protein

GRP78 (soluble / recombinant protein), P11021 19-654 (other; other documents disagree on this pair), sequence (P11021 19-654 limits assumed): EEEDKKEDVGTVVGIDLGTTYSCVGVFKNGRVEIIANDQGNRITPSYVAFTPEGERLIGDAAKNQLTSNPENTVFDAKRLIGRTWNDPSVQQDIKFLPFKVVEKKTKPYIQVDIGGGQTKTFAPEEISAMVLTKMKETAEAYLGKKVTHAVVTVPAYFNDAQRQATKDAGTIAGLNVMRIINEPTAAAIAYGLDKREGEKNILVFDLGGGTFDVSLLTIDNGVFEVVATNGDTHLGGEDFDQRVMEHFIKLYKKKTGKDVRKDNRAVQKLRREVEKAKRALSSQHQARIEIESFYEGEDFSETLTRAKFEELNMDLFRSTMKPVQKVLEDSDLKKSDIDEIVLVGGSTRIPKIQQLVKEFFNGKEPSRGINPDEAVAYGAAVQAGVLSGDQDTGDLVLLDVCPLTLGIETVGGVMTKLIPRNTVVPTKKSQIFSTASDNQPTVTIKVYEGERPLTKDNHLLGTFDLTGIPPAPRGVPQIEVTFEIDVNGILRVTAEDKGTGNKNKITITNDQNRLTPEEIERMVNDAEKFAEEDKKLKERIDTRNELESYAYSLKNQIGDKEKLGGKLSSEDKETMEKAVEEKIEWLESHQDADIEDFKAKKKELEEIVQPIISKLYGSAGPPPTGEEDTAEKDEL

“GRP78 (soluble / recombinant protein), P11021 19-654 (other; other documents disagree on this pair)” gave a Kd of 293 nM.
